Test results as given in US20250025478.

Chain of 3×-FLAG-RNF213 (chain, as listed by the source): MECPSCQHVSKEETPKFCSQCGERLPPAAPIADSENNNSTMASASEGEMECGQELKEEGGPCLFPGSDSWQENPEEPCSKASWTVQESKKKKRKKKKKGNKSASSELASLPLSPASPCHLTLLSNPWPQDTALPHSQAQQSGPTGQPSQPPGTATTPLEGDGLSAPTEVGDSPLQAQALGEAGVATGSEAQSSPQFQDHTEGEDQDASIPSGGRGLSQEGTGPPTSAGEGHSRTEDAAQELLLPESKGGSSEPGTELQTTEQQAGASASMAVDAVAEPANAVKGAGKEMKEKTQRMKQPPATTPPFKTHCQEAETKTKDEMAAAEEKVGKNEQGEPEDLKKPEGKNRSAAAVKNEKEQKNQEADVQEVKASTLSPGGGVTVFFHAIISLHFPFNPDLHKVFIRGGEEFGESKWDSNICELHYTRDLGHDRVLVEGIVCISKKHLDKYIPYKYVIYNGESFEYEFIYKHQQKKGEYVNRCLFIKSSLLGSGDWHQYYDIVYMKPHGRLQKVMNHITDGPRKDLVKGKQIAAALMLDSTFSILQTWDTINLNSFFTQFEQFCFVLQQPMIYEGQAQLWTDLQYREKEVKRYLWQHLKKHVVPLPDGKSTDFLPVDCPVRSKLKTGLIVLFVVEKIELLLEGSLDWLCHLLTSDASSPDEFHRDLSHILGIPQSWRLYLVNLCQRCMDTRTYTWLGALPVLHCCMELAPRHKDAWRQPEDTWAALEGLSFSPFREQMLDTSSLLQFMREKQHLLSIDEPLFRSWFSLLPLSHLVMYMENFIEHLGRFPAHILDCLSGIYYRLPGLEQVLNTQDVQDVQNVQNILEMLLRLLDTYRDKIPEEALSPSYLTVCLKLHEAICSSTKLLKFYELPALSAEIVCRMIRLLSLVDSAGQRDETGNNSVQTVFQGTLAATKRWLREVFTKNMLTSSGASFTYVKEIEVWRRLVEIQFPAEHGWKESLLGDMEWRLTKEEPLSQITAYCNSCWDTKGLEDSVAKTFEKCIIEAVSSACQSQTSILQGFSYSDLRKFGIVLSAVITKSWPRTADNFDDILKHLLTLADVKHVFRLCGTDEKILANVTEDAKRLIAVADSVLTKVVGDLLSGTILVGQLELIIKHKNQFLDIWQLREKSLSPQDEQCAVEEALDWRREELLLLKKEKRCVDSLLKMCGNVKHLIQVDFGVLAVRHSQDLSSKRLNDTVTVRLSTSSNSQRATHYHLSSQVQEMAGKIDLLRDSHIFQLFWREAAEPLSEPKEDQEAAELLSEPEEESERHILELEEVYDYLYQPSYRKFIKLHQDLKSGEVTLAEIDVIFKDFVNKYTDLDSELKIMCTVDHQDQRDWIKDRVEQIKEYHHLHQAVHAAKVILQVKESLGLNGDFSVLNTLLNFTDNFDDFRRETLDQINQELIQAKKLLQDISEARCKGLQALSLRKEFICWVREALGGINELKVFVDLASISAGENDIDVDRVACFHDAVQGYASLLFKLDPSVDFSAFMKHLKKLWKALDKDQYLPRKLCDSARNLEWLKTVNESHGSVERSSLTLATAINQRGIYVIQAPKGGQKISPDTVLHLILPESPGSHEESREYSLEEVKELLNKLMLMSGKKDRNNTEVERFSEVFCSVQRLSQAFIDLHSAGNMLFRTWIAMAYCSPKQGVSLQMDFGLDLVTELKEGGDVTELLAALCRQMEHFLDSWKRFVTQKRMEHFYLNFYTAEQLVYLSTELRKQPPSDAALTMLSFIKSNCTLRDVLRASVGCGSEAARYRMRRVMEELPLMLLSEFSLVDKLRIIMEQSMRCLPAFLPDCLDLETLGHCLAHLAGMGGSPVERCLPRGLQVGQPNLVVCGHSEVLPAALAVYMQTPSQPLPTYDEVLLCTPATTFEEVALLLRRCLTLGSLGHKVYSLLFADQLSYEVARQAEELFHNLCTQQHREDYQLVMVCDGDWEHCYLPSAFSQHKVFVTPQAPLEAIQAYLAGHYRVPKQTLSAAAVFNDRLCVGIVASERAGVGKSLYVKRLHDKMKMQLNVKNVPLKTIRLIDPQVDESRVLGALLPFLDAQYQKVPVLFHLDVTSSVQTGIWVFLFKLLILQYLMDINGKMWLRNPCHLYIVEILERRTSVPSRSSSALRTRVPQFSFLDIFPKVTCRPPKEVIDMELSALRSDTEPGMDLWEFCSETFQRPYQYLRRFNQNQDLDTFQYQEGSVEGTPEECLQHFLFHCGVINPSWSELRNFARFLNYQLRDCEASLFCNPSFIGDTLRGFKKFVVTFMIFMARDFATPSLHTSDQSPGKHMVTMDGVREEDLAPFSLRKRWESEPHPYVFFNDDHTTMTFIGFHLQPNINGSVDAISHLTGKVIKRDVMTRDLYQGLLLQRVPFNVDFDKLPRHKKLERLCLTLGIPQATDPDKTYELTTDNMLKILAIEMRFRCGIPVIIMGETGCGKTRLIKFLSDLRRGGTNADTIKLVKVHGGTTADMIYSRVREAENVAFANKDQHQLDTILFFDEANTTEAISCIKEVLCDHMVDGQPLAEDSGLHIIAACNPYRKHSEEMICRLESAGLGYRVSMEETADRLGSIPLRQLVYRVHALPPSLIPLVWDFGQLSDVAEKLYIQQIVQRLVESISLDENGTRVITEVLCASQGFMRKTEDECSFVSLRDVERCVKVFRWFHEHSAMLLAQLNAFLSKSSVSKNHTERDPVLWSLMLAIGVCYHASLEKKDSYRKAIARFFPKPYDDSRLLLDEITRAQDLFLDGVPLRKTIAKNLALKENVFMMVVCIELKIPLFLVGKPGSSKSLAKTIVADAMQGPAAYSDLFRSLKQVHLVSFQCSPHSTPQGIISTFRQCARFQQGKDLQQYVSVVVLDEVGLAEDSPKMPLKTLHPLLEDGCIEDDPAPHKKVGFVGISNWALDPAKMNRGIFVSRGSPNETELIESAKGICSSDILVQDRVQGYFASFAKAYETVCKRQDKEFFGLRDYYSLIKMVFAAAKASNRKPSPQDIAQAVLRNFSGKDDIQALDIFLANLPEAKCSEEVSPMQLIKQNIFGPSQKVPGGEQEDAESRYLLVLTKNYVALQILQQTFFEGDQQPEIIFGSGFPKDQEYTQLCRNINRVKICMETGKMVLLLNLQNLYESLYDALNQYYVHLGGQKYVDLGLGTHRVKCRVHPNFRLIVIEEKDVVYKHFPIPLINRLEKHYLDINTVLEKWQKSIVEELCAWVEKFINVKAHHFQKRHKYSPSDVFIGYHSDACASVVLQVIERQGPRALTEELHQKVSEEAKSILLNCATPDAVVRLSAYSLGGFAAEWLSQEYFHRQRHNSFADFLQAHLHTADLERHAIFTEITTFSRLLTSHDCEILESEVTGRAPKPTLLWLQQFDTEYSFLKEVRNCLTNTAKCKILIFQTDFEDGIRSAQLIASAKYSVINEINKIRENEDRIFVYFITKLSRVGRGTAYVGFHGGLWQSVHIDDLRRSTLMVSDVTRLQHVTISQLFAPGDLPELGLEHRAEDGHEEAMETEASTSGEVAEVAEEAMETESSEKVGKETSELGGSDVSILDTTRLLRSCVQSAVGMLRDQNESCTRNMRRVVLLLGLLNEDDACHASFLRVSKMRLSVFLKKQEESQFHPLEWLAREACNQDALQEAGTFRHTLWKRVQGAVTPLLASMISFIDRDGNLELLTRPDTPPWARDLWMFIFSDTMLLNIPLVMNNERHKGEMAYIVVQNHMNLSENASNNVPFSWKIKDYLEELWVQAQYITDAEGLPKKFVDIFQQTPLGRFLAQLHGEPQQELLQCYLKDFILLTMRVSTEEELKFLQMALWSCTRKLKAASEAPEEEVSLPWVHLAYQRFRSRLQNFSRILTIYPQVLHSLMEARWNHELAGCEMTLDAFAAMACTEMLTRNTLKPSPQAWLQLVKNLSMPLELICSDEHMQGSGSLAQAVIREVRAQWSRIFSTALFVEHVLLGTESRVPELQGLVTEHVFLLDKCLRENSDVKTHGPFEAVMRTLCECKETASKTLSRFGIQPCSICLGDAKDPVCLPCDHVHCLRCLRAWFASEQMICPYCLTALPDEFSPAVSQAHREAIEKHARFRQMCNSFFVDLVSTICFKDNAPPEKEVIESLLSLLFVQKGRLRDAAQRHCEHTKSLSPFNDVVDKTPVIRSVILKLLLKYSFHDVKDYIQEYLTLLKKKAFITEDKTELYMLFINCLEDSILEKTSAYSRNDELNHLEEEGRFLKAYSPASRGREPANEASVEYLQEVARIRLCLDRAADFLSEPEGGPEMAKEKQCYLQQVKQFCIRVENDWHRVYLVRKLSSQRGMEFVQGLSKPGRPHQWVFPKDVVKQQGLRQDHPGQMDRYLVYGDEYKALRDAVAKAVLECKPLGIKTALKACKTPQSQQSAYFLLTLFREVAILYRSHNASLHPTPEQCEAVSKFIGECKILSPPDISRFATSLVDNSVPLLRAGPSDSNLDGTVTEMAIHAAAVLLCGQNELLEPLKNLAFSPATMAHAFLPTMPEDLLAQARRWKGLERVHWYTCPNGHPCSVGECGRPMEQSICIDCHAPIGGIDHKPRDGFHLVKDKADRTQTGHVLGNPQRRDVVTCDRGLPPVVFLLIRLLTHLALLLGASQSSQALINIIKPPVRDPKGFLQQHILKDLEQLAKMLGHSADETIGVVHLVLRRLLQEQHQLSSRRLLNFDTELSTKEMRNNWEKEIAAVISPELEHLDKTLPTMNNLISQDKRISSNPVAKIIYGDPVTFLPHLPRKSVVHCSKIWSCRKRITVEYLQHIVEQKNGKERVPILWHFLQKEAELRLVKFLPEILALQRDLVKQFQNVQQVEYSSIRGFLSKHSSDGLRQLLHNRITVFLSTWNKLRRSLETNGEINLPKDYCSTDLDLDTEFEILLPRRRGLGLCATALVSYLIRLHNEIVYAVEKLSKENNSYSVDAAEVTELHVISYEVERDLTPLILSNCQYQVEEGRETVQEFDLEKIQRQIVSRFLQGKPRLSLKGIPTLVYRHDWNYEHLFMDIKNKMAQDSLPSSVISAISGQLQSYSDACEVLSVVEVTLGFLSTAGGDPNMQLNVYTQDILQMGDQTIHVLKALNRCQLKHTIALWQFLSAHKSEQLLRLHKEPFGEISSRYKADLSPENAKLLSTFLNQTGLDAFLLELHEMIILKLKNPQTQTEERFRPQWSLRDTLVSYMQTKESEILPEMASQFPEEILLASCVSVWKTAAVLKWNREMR

B1: recombinant His-tagged ABL1 (protein)
chain: SPNYDKWEMERTDITMKHKLGGGQYGEVYEGVWKKYSLTVAVKTLKEDTMEVEEFLKEAAVMKEIKHPNLVQLLGVCTREPPFYIITEFMTYGNLLDYLRECNRQEVNAVVLLYMATQISSAMEYLEKKNFIHRDLAARNCLVGENHLVKVADFGLSRLMTGDTYTAHAGAKFPIKWTAPESLAYNKFSIKSDVWAFGVLLWEIATYGMSPYPGIDLSQVYELLEKDYRMERPEGCPEKVYELMRACWQWNPSDRPSFAEIHQAFETMFQESSISDEVEKELGK
in vitro kinase assay (tyrosine phosphorylation) (3×-FLAG-RNF213): His-ABL1 phosphorylated WT-RNF213, but not RNF213^Y1275F in a time- and ABL1-concentration-dependent manner
in vitro kinase assay (tyrosine phosphorylation) (3×-FLAG-RNF213^Y1275F): His-ABL1 phosphorylated WT-RNF213, but not RNF213^Y1275F
